The results in this text go back to the DeepSol protein solubility set.

This data set can be described thus: soluble on expression in E. coli; label from the status in PepcDB or PDB records.
For “MESKNKNGDYVIPDSVKNYDGEPLYILVSLWCKLQEKWISRNDIAEAFGINLRRASFIITYISRRKEKISFRVRYVSYGNLHYKRLEIFIYDVNLEAVPIESPGTTGPKRKTYRVGNGIVGQSNIWNEMIMRRKKES”, the “soluble on expression in E. coli” value is on record as “not soluble”.
As for “MESRKLISATDIQYSGSLLNSLNEQRGHGLFCDVTVIVEDRKFRAHKNILSASSTYFHQLFSVAGQVVELSFIRAEIFAEILNYIYSSKIVRVRSDLLDELIKSGQLLGVKFIAAL”, the entry is “soluble”; as for “MESTIEGEDENYVKVYITDNLDSEHELTIDKNSGDIPYHQCDAYADDANRRTSEENEYNNQARRYAKYYVFAQRGYDTVEHIENPAYVDAVRRAIADLSPAEFKRYFGALYRQLRSHHDDTERPRELPSGVRKPDAVVYEPEIYLGLEAVGEDVAERAQALATAHGFDLEESAEVQPVSELSDETLSRWKAFGDDLAAIVTREDLTTNLTITGVSGLHIGYPNRLGKHEVDEADSPFTHQADARLSLLPYAPESFDEFPAYLDHHLRCQVRDCFLKMGVVPPEEFHVVGFGKFRDSRRYDHFEMYPEVHKRDGNHTPLLG”, “not soluble”.
As for “METASITEWTFVQEVPIPEDVANLMVPGEDAVVAFKTFRDSAIFTTKRLIVRDSQGLRGKKVEVYSLPYSSVNMWSTENAGTFDFNAEVELWTRAGKIKIKIGRDLDVRRLDMLLAQCILG”, the entry is “not soluble”.
For “METNRPSPDALLVNLQEEADSSVGKLKIYFGFAAGVGKTYAMLSDAKDQLAAGVDVVAGYIEPHAREETLRMLEGIPIIPPKAINHKNIALKEFDLDEALKRKPELILVDELAHTNASGVRNKKRFQDVEELLQAGIDVYTTVNVQHIESLNDIVEGITKVAVRETIPDYVFDEADRVKLIDIEPDELLKRLEQGKIYQPARAKTAMQNFFTRENLKLLREIAMRKAADRI” the value was “not soluble”; for “METPSSAKRVTRSQAISAINDSDSDFKVPFSSSNKTEDSSIDQRKEEDRSALIDITNDSPIVGLTMQTPPSGFMVKRKSSRIKITPGSGEALLRGQVKTLLHKVEEGTELIHSIKTRPFIHLVTSPMRLLAPTPANTPQFPNFSDDDVKIKIASPIVAGNLRTSQISEEKEDKRMKKMNVETNQAEFAGKHNRFLYNSEDDEIVEAKEVLHLKGIPTPRGKHFRFATQEE”, “soluble”; for “METQDVVAKHYDELASEDRATRKSSKILSLRNLNNWVKSVLIALHTRPGYSVLDLACGKGGDLQKWQSQQITQYVGCDISKESLKTAQQRYQQLKKCTFTAQFLCGDCFSCRLSRYLEPDRNFHIVSCQFSMHYAFSCEEKVRRLLENVTERLVAGGFFIGTIPDSNVLVRKLRASSGLEFGNEFYRVVFDDSSSKTFTKPFGIRYHFYLESSVLDIPEYLVVMPVFEKLAKGYGLELQLVMNFHEFITMYLSAGSPFISLFHRMNILQDGGLSPEFWDTAYLYTVFAMKKQGASPWLGLSPESISYVDNTSFERKVIVMMDDEELDSERITFVDKEWNEMIPKRIKLQK”, “soluble”.
For the sequence “METQEKKFVPASKQIPTVNSGWLDRELGEAMSEAVRACLAHGKQSEITVKLKIQPQNIQSGTVKISHDVATKLPKEKREGGIVFATPDGNIQADDPAQGKLKLKQVSNTSSTLKMVRSN”, the “soluble on expression in E. coli” value was “not soluble”.
Take “METTKTNVLEAGAKVLQSNGPVGKLDIYLVGFHPMKDAPEQQMEAHHYCQQVNQDLAQCALYDGNTAEANLTGIEYIISESLFAQLPAQERAFWHPHNGEILSGQLSAPNLPLVAEKELMRSKMNSYGKTWHTWHSRKGTAPGDTLPLGEPMLAWSFSRDGEIQQPLIEQRDKAVTISTAERRADRKDLTELAKPQHGVDALHRHFPEATPIPGVVDAEATAQLEHHHHHH”: the “soluble on expression in E. coli” value is recorded as “soluble”.
As for “MEVFLLKLDSKNCPNKRLKTLEEVPENTAITVGNFDGVHLGHRYLIENLKKKAKSENLKTLVLTFCPHPLKVLAPQLLPCELTDINEKIEIFRELGVDYLCFIRFDKEFAKIRAREFLEKIIYEKLKCRYLLVGYDWRYGYRREGEIELAKEVGSELGFEVEEAKPFKIKGHIVSSTLIRRLLREGRVEEVREYLGHNYWVKRKVVKGDQRGSKIGFPTANLQNTENLCLKEGVYAVKVEDKYLGVANYGYRPTFGKKKRVLEVHILDFEGNLRGKRIKVEFLKFIREEKKFSSVEELIQQIKKDVEAVKGLSKLEHHHHHH”, the entry is “soluble”; as for “MEVLKVASNSNPNKVAGALAGVIREKGKAELQAIGAGAVNQAVKAIAIARGYLAPSGINLVCVPAFAEVQINGETRTAIKFIVFPKD”, “not soluble”.
